Assay results: patent US10472652B2, “Chemical engineering processes and apparatus for the synthesis of compounds” (TEEWINOT T[…], priority 2013, dated 2019)

T1: THCA synthase (Cannabis sativa, UniProt Q8GTB6)
T1 construct: His-tag (C); made in house; host or cells: Pichia pastoris (PichiaPink, pPink-HC vector), secreted into the medium; cell-free T3 supernatant used
T1 sequence (Q8GTB6 29-545): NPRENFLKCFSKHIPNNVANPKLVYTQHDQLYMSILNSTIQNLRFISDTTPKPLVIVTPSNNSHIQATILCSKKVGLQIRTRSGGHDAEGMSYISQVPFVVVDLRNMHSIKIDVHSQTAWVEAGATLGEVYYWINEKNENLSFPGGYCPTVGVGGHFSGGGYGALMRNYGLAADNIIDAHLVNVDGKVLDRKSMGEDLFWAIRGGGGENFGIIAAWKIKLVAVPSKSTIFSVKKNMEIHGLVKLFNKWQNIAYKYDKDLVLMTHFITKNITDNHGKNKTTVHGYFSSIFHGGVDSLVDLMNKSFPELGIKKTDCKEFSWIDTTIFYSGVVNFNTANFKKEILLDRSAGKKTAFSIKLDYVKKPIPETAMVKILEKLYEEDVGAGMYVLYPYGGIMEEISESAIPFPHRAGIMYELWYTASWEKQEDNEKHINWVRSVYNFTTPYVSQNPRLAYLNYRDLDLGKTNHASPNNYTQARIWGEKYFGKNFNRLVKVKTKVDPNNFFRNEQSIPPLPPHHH


Columns and labels:
Type in all cases: biochemical
THCA synthase [1] = target: T1, THCA synthase; assay: pH study: ratio of THCA to CBCA produced when THCA synthase is contacted with CBGA
Method: Table 3 illustrates the results of a pH study that was aimed at identifying the effect of pH on product ratio, namely, the ratio of THCA to CBCA compounds produced when THCA synthase is contacted with CBGA as substrate. The pH of the reaction mixture in this study ranged from a pH of 4.0 to 8.0.
In fact, THCA is the major product when catalysis is carried out at a pH of 4.0. Increasing the pH of the reaction mixture altered the product distribution ratio with approximately 30% CBCA being produced as product at a pH of 5.0 and around […] CBCA being produced as product at a pH value of 6.0. A further increase in pH of the reaction mixture, such as an increase of the pH of the reaction mixture to a pH of 7.0 gave CBCA exclusively as the product of THCA synthase catalyzed conversion of CBGA. Any further increases in pH, moreover, reduced or eliminated catalytic activity of THCA synthase, with no product observed for a reaction mixture at a pH of 8.0.

THCA synthase [2] = target: T1, THCA synthase; assay: effect of detergent SDS on THCA synthase conversion of CBGA; details: SDS added to 100 mM citrate buffer containing cyclodextrin
Method: In contrast, addition of SDS to 100 mM citrate buffer containing cyclodextrin destroyed THCA synthases ability to catalyze reaction. Only 8% of the substrate was converted to product under these reaction conditions with the formation of THCA being favored as product under these reaction conditions.

THCA synthase [3] = target: T1, THCA synthase; assay: effect of concentration of non-aqueous solvent (DMSO) on THCA synthase catalytic rate and THCA:CBCA product ratio
Method: Accordingly, the effects of temperature, pH, solvent, ionic strength and incubation times on the distribution ratio of THCA to CBCA products were studied. In one embodiment, the effect of solvent on product distribution ratio was evaluated. Cannabinoids are lipohilic in nature and are poorly solubilized in aqueous solvents. The poor solubility of cannabinoids in aqueous solvent has prevented the development of ex-vivo enzyme catalyzed methodologies for the synthesis of cannabinoids and cannabinoid analogs.
The catalytic rate […] slightly as concentration of the non-aqueous solvent is increased. Thus, 20% DMSO gave the highest catalytic rate, approximately 2.5-fold faster than catalysis in buffer alone. Table 1 illustrates the effect of concentration of non-aqueous solvent on the rate of catalytic activity.
As further illustrated in this table, the concentration of non-aqueous solvent can alter the ratio of THCA to CBCA produced as product. Thus, greater levels of THCA are obtained when the concentration of DMSO in buffer is less that 20%, with a THCA:CBCA distribution ratio of 10:1 observed when 10% DMSO is used as the solvent.

THCA synthase [4] = target: T1, THCA synthase; assay: catalytic activity of THCA synthase from independent colonies of transformed pPink yeast cells (conversion of CBGA to THCA); details: 25 μl cell free supernatant of T3 sample, 100 mM citrate buffer, 10% DMSO, final pH 5.0, 2 hours at 30° C.
Method: After 24 hours a 100 μL of the cell sample was removed to which was added 100 μL of 40% methanol to induce enzyme production. This methanolic sample was then centrifuged at 12,000 rpm for 5 minutes and the supernatant and pellet were saved as the T1 sample. A second culture sample was obtained after a 48 hour incubation period and treated with methanol as described above. After centrifugation, the supernatant and pellet are saved as the T2 sample. At 72 hours the entire incubation mixture is treated with an appropriate volume of 40% methanol. The supernatant and pellet obtained from methanolic treatment of the culture after a 72 hour incubation period is labeled as T3. The T3 supernatant was spun through an Amicon 30 kD protein filter and analyzed for protein using an SDS-PAGE gel.
The catalytic activity of THCA synthase was measured by incubating 25 μl of the cell free supernatant from a T3 sample with 25 μl of a 1 mg/ml CBGA stock in 200 μl of a 100 mM citrate buffer at pH 4.8 having 10% DMSO for 2 hours at 30° C. The final concentration of CBGA in the reaction mixture was 0.1 mg/ml and the final pH is 5.0. Table 4 illustrates the data related to the catalytic activity of THCA synthase obtained from independent colonies of transformed pPink yeast cells, namely. pPink yeast cells that were transformed using linearized THCA synthase plasmids. Culture samples that converted greater than 20% of the substrate CBGA to product THCA were selected for scale up.

Molecule	CBCA (share of product) (THCA synthase [1]; pH 4, substrate CBGA)	THCA (share of product) (THCA synthase [1]; pH 4, substrate CBGA) [%]	THCA (share of product) (THCA synthase [1]; pH 5, substrate CBGA) [%]	THCA (share of product) (THCA synthase [1]; pH 6, substrate CBGA) [%]	CBCA (share of product) (THCA synthase [1]; pH 7, substrate CBGA) [%]	THCA (share of product) (THCA synthase [1]; pH 7, substrate CBGA) [%]	CBCA (share of product) (THCA synthase [1]; pH 8, substrate CBGA) [%]	THCA (share of product) (THCA synthase [1]; pH 8, substrate CBGA) [%]	substrate converted to product (THCA synthase [2]) [%]	FASTER (catalytic rate relative to buffer alone) (THCA synthase [3]; DMSO 0%) [X]	FASTER (catalytic rate relative to buffer alone) (THCA synthase [3]; DMSO 10%) [X]	FASTER (catalytic rate relative to buffer alone) (THCA synthase [3]; DMSO 30%) [X]	% Conversion of CBGA to THCA in reaction containing 0.1 mg/ml CBGA. (THCA synthase [4]) [%]
THCA synthase: recombinant His-tagged tetrahydrocannabinolic acid synthase secreted by transformed Pichia pastoris yeast cells (protein, UniProt Q8GTB6 29-545, looked up, His tag, recombinant His-tagged tetrahydrocannabinolic acid synthase secreted by transformed Pichia pastoris yeast cells) Tetrahydrocannabinolic acid …: NPRENFLKCFSKHIPNNVANPKLVYTQHDQLYMSILNSTIQNLRFISDTTPKPLVIVTPSNNSHIQATILCSKKVGLQIRTRSGGHDAEGMSYISQVPFVVVDLRNMHSIKIDVHSQTAWVEAGATLGEVYYWINEKNENLSFPGGYCPTVGVGGHFSGGGYGALMRNYGLAADNIIDAHLVNVDGKVLDRKSMGEDLFWAIRGGGGENFGIIAAWKIKLVAVPSKSTIFSVKKNMEIHGLVKLFNKWQNIAYKYDKDLVLMTHFITKNITDNHGKNKTTVHGYFSSIFHGGVDSLVDLMNKSFPELGIKKTDCKEFSWIDTTIFYSGVVNFNTANFKKEILLDRSAGKKTAFSIKLDYVKKPIPETAMVKILEKLYEEDVGAGMYVLYPYGGIMEEISESAIPFPHRAGIMYELWYTASWEKQEDNEKHINWVRSVYNFTTPYVSQNPRLAYLNYRDLDLGKTNHASPNNYTQARIWGEKYFGKNFNRLVKVKTKVDPNNFFRNEQSIPPLPPHHH	Trace	100	70	85	100	0	0	0	8	1	1.2	0.3	
Spe THC #23: cell free supernatant with THCA synthase from a pPink yeast colony transformed with Spe I linearized THCA synthase plasmid (protein, UniProt Q8GTB6 29-545, looked up, yeast culture supernatant, cell free supernatant with THCA synthase from a pPink yeast colony transformed with Spe I linearized THCA synthase plasmid) Tetrahydrocannabinolic acid …: NPRENFLKCFSKHIPNNVANPKLVYTQHDQLYMSILNSTIQNLRFISDTTPKPLVIVTPSNNSHIQATILCSKKVGLQIRTRSGGHDAEGMSYISQVPFVVVDLRNMHSIKIDVHSQTAWVEAGATLGEVYYWINEKNENLSFPGGYCPTVGVGGHFSGGGYGALMRNYGLAADNIIDAHLVNVDGKVLDRKSMGEDLFWAIRGGGGENFGIIAAWKIKLVAVPSKSTIFSVKKNMEIHGLVKLFNKWQNIAYKYDKDLVLMTHFITKNITDNHGKNKTTVHGYFSSIFHGGVDSLVDLMNKSFPELGIKKTDCKEFSWIDTTIFYSGVVNFNTANFKKEILLDRSAGKKTAFSIKLDYVKKPIPETAMVKILEKLYEEDVGAGMYVLYPYGGIMEEISESAIPFPHRAGIMYELWYTASWEKQEDNEKHINWVRSVYNFTTPYVSQNPRLAYLNYRDLDLGKTNHASPNNYTQARIWGEKYFGKNFNRLVKVKTKVDPNNFFRNEQSIPPLPPHHH													18.7
